Molecular target: Flag-EGFR purified from 293T cells (UniProt P00533 25-1210)
Assay: co-IP

binding result: binds
B1: His-CDC34 (enzyme)
chain: MARPLVPSSQKALLLELKGLQEEPVEGFRVTLVDEGDLYNWEVAIFGPPNTYYEGGYFKARLKFPIDYPYSPPAFRFLTKMWHPNIYETGDVCISILHPPVDDPQSGELPSERWNPTQNVRTILLSVISLLNEPNTFSPANVDASVMYRKWKESKGKDREYTDIIRKQVLGTKVDAERDGVKVPTTLAEYCVKTKAPAPDEGSDLFYDDYYEDGEVEEEADSCFGDDEDDSGTEES

Reference: publication PMC7047192 (EBioMedicine, 2020)
